Experiment [1] concerns the target 14-3-3κ (UniProt P48348). Briefly: isothermal titration calorimetry. Background: In ITC the heat of successive injections is recorded.
Experiment [2] concerns the target Arabidopsis 14-3-3 isoform kappa (At14-3-3-κ^1−248) (Arabidopsis thaliana) (UniProt P48348). Briefly: ITC; Nano ITC, 25°C, 25 mM Hepes pH 7.0, 50 mM KCl; 600 μM peptide or phosphopeptide injected into 50 μM 14-3-3 protein in the cell, 25 injections.
Experiment [3] deals with biotinylated 14-3-3 ω dimer (Arabidopsis thaliana) (UniProt Q01525). The experiment can be described thus: grating-coupled interferometry (GCI); Creoptix WAVE; biotinylated 14-3-3 ω dimer captured on a streptavidin-coated 4PCH chip (~500 pg/mm^2); peptide as analyte, 2-fold dilution series from 10 µM; 25°C; 20 mM Hepes, 150 mM NaCl; 1-to-1 (2:2) binding model.
Sequence of biotinylated 14-3-3 ω dimer (Arabidopsis thaliana) (Q01525 whole entry): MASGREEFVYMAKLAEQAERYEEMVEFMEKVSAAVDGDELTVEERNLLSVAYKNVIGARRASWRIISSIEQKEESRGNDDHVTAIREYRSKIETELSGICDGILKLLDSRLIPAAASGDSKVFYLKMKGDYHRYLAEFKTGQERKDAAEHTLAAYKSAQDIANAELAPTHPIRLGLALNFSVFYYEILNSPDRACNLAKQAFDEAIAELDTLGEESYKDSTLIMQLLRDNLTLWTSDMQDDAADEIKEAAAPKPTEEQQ

Sequence of Arabidopsis 14-3-3 isoform kappa (At14-3-3-κ^1−248) (Arabidopsis thaliana) (P48348 whole entry, canonical isoform): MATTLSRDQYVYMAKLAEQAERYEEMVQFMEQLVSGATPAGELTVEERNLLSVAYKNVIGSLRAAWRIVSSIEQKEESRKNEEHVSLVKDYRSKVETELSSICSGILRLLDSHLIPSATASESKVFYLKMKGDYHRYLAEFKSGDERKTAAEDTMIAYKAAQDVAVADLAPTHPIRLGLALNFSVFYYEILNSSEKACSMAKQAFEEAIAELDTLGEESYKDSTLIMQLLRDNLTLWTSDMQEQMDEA
Sequence of 14-3-3κ (P48348 whole entry, looked up, canonical isoform): as the sequence (P48348 whole entry, canonical isoform) above

Regarding “BKI1 265-272 (from UniProt Q9FMZ0) pS270 peptide”, the KD result in experiment [1] (reference: unphosphorylated BKI1 265-272 peptide, sites S270) is on record as “gained; reference No binding was detected”.

As for “BRI1 869-874 (from UniProt O22476) pT872 peptide”, the “binding against the reference” value in experiment [1] (reference: unphosphorylated BRI1 869-874 peptide, sites T872) is “gained”.

The Kd is the equilibrium constant for the complex coming apart. High values mean a looser complex, low ones a tighter complex. Broadly, the stoichiometry N is a count of units in the complex or per binding partner. As to pBKI1^265−272 peptide, in experiment [2], the Kd was determined as 16000 nM and the stoichiometry N was determined as 1.

The substance pBRI1^869−874 peptide registered a stoichiometry N in experiment [2] of 1.

In experiment [3], pBZR1^169−175 peptide came in with a Kd of 500 nM and a complex lifetime of 1 s. In experiment [2], this substance registered a Kd of 500 nM and a stoichiometry N of 1.

The values above are taken from article PMC11558545, “Mechanistic Insights into the Function of 14-3-3 Proteins as Negative Regulators of Brassinosteroid Signaling in Arabidopsis” (Plant and Cell Physiology, 2024).
